# Experimental data reported in patent US12065466B2, “Methods and compositions for protein sequencing” (Quantum-Si Incorporated, priority 2020, dated 2024).
# B1: PS380: ClpS protein, SEQ ID NO: 13 (protein)
# chain: MGDIYGESNPEEVSCIDSLSEEGNELILFNDNIHTFEYVIDCLVAICSLSYEQASNCAYIVDRKGLCTVKHGSYDELLIMYHALVEKDLKVEIR
# B2: PS569: PS372-homologous ClpS protein, SEQ ID NO: 83 (protein, listed as Planctomycetes bacterium)
# chain: MYSKNQIKIYCSEDDKGQTATPLLEKKPKFAPLYHVILWDDNTHTYEYVIKLLMSLFRMTFEKAYQHTLEVDKKGRTICITTHLEKAELKQEQISNFGPDILMQNSKGPMSATIEPAN
# B3: PS574: PS372-homologous ClpS protein, SEQ ID NO: 88 (protein, listed as Gemmata obscuriglobus)
# chain: MANATPTPDVVPEEETETRTRRQPPYAVVLHNDDTNTMDFVVTVLRKVFGYTVEKCVELMLEAHTQGKVAVWIGALEVAELKADQIKSFGPDPHVTKNGHPLGVTVEPAA
# B4: PS376: ClpS protein, SEQ ID NO: 9 (protein)
# chain: MPTNDLDLLEKQDVKIERPKMYQVVMYNDDFTPFDFVVAVLMQFFNKGMDEATAIMMQVHMQGKGICGVFPKDIAETKATEVMKWAKVEQHPLRLQVEAQA
# B5: PS575: PS372-homologous ClpS protein, SEQ ID NO: 89 (protein, listed as Leptospira kmetyi)
# chain: MASTQTPDLNEITEESTKSTGGPWRVVLWDDNEHTYEYVIEMLMEICTMTVEKAFLHAVQVDQEKRTVVFSGEFEHAEHVQERILTYGADPRMSNSKGSMSATLEK
# B6: PS576: PS372-homologous ClpS protein, SEQ ID NO: 90 (protein)
# chain: MASTQTPDLNEITEESTKSTGGPWRVVLWDDNEHTYEYVIEMLVEICMMTVEKAFLHAVQVDKEKRTVDFSGELEHAEHVQERILNYGADPRMSNSKGSMSATLER
# modifications: Leptospira interrogans
# B7: Plasmodium falciparum ClpS: ClpS protein, SEQ ID NO: 110 (protein, listed as Plasmodium falciparum)
# chain: MFKDLKPFFLCIILLLLLIYKCTHSYNIKNKNCPLNFMNSCVRINNVNKNTNISFPKELQKRPSLVYSQKNFNLEKIKKLRNVIKEIKKDNIKEADEHEKKEREKETSAWKVILYNDDIHNFTYVTDVIVKVVGQISKAKAHTITVEAHSTGQALILSTWKSKAEKYCQELQQNGLTVSIIHESQLKDKQKK
# B8: PS573: PS372-homologous ClpS protein, SEQ ID NO: 87 (protein, listed as Leptospira fluminis)
# chain: MSQTPVIEETTVKDPVKTGGPWKVVLWDDDEHTYDYVIEMLMEVCVMTMEQAFHHAVEVDTQKKTVVYSGEFEHAEHIQELILEYGPDPRMAVSKGSMSATLEKS
# B9: PS382: ClpS protein, SEQ ID NO: 15 (protein)
# chain: MSDSPVIKEIKKDNIKEADEHEKKEREKETSAWKVILYNDDIHNFTYVTDVIVKVVGQISKAKAHTITVEAHSTGQALILSTWKSKAEKYCQELQQNGLTVSIIHESQLKDKQKK
# B10: Synechococcus elongatus ClpS1: ClpS protein, SEQ ID NO: 105 (protein, listed as Synechococcus elongatus)
# chain: MAVETIQKPETTTKRKIAPRYRVLLHNDDFNPMEYVVMVLMQTVPSLTQPQAVDIMMEAHTNGTGLVITCDIEPAEFYCEQLKSHGLSSSIEPDD
# B11: PS577: PS372-homologous ClpS protein, SEQ ID NO: 91 (protein, listed as Tuwongella immobilis)
# chain: MSASSSQPGTTTKPDLDIQPRLLPPFHVILENDEFHSMEFVIDTLRKVLGVSIERAYQLMMTAHESGQAIIWTGPKEVAELKYEQVIGFHEKRSDGRDLGPLGCRIEPAV
# B12: PS568: PS372-homologous ClpS protein, SEQ ID NO: 82 (protein, listed as Dehalococcoidia bacterium)
# chain: MTTPSLPTRETEVEERTEVEPERLYHLVLLDDDQHSYQYVIEMLASIFGYGSEKAWTLARIVDTEGRAILETASHAQCERHQSQIHAYGADSRIPTSVGSMSAVIEEAGTPPQT
# B13: PS578: PS372-homologous ClpS protein, SEQ ID NO: 92 (protein, listed as Planctomycetes bacterium)
# chain: MSGTVVESKPRNSTQLAPRWKVIVHDDPVTTFDFVLGVLRRVFAKPPGEARRITREAHDTGSALVDVLALEQAEFRRDQAHSLARAEGFPLTLTLEPAD
# B14: atClpS2: Agrobacterium tumifaciens ClpS2, SEQ ID NO: 94 (protein, listed as Agrobacterium tumifaciens)
# chain: MSDSPVDLKPKPKVKPKLERPKLYKVMLLNDDYTPREFVTVVLKAVFRMSEDTGRRVMMTAHRFGSAVVVVCERDIAETKAKEATDLGKEAGFPLMFTTEPEE
# B15: atClpS2-V1 + C72S: ClpS protein, SEQ ID NO: 101 (protein)
# chain: MSDSPVDLKPKPKVKPKLERPKLYKVMLLNDDYTPMSFVTVVLKAVFRMSEDTGRRVMMTAHRFGSAVVVVSERDIAETKAKEATDLGKEAGFPLMFTTEPEE
# B16: atClpS2 C72S: ClpS protein, SEQ ID NO: 100 (protein)
# chain: MSDSPVDLKPKPKVKPKLERPKLYKVMLLNDDYTPREFVTVVLKAVFRMSEDTGRRVMMTAHRFGSAVVVVSERDIAETKAKEATDLGKEAGFPLMFTTEPEE
# B17: PS375: ClpS protein, SEQ ID NO: 8 (protein)
# chain: MEAEPETKVLASIPGVGTSEPFRVVLFNDEEHSFDEVIFQIIKAVRCSRAKAEALTMEVHNSGRSIVYTGPIEQCIRVSAVLEEIELRTEIQS
# B18: atClpS1 C7S: ClpS protein, SEQ ID NO: 103 (protein)
# chain: MIAEPISMQGEGDGEDGGTNRGTSVITRVKPKTKRPNLYRVLLLNDDYTPMEFVIHILERFFQKDREAATRIMLHVHQHGVGECGVFTYEVAETKVSQVMDFARQHQHPLQCVMEKK
# B19: atClpS1 C7S, C84S, C112S: ClpS protein, SEQ ID NO: 104 (protein)
# chain: MIAEPISMQGEGDGEDGGTNRGTSVITRVKPKTKRPNLYRVLLLNDDYTPMEFVIHILERFFQKDREAATRIMLHVHQHGVGESGVFTYEVAETKVSQVMDFARQHQHPLQSVMEKK
# B20: PS570: PS372-homologous ClpS protein, SEQ ID NO: 84 (protein, listed as Leptospira congkakensis)
# chain: MTGAGASQPSILEETEVRPRLSDGPWKVVLWDDDFHTYEYVIEMLMDVCQMPWEKAFQHAVEVDTRKKTIVFSGELEHAEFVHERILNYGPDPRMGSSKGSMTATLEQ
# B21: PS571: PS372-homologous ClpS protein, SEQ ID NO: 85 (protein, listed as Leptospira meyeri)
# chain: MTSSGASQPSILEETERKPRLSDGPWKVVLWDDDFHTYEYVIEMLMDVCQMPWEKAFQHAVEVDTRKKTIVFFGELEHAEFVHERILNYGPDPRMGTSKGSMTATLEK
# B22: PS567: PS372-homologous ClpS protein, SEQ ID NO: 81 (protein, listed as Planctomycetaceae bacterium)
# chain: MADYEDAGEDALEDDFDHGTVTVAPQKPEPKKQSENKRQANRQPRYNVLLWDSEDHTFEYVEKMLRELFGHIKKQCQIIAEQVDQEGRAVVLTTTLEHAELKRDQIHAYGKDQLEGSKGSMWSTIEAVD
# B23: PS378: ClpS protein, SEQ ID NO: 11 (protein)
# chain: MXPQEVEEVSFLESKEHEIVLYNDDVNTFDHVIECLVKICNHNYLQAEQCAYIVHHSGKCGVKTGSLEELIPKCNALLEEGLSAEVI
# modifications: not fully specified; X: residue not identified in the source
# B24: PS572: PS372-homologous ClpS protein, SEQ ID NO: 86 (protein, listed as Blastopirellula marina)
# chain: MSSEELSLQTRPKRQPPFGVILHNDDLNSFDYVIDSIRKVFHYELEKCFQLTLEAHETGRSLLWTGTLEGAELKQELLLSCGPDPIMLDKGGLPLKVTLEELPQ
# B25: Escherichia coli ClpS: ClpS protein, SEQ ID NO: 108 (protein, listed as Escherichia coli)
# chain: MGKTNDWLDFDQLAEEKVRDALKPPSMYKVILVNDDYTPMEFVIDVLQKFFSYDVERATQLMLAVHYQGKAICGVFTAEVAETKVAMVNKYARENEHPLLCTLEKA
# B26: Escherichia coli ClpS M40A: ClpS protein, SEQ ID NO: 109 (protein, listed as Escherichia coli)
# chain: MGKTNDWLDFDQLAEEKVRDALKPPSMYKVILVNDDYTPAEFVIDVLQKFFSYDVERATQLMLAVHYQGKAICGVFTAEVAETKVAMVNKYARENEHPLLCTLEKA
# Test system: amino acid at a terminal position of a polypeptide
# Assay: Amino acid binding preference of recognition proteins (Tables 1 and 2)
# Settings: Table 1, ClpS proteins; amino acid identity at a terminal position of a polypeptide; inferred from literature and/or demonstrated by the inventors
# Excerpt: It should be appreciated that these sequences and other examples described herein are meant to be non-limiting, and recognition molecules in accordance with the application can include any homologs, variants thereof, or fragments thereof minimally containing domains or subdomains responsible for peptide recognition.
row,Molecule,Binding Pref.
1,B1,"F, W"
2,B2,"I, L, V"
3,B3,"I, L, V"
4,B4,"F, W, L"
5,B5,"I, L, V"
6,B6,"I, L, V"
7,B7,"F, W, Y, L"
8,B8,"I, L, V"
9,B9,"F, Y, W, L"
10,B10,"F, W, Y"
11,B11,"I, L, V"
12,B12,"I, L, V"
13,B13,"I, L, V"
14,B14,"F, W, Y"
15,B15,"F, W, Y"
16,B16,"F, W, Y"
17,B17,"F, L"
18,B18,"F, W, Y, L"
19,B19,"F, W, Y, L"
20,B20,"I, L, V"
21,B21,"I, L, V"
22,B22,"I, L, V"
23,B23,"F, Y, W, L"
24,B24,"I, L, V"
25,B25,"F, W, Y, L"
26,B26,"F, W, Y, L"
